PMC4686654, “A molecular ruler regulates cytoskeletal remodelling by the Rho kinases” (Nature Communications, 2015)

Columns and labels:
[1] = target: human ROCK2 1-408 (kinase domain alone) (human); experiment: not stated; recombinant catalytic domain in solution; details: both partners purified
[2] = target: T1, RBD fragment of human ROCK2 (977-1,047) (human, UniProt O75116 977-1047); experiment: SEC; Superdex 75 in 20 mM Tris pH 7.5, 100 mM NaCl, 1 mM TCEP, 4 mM MgCl2; details: both partners purified
T1 chain: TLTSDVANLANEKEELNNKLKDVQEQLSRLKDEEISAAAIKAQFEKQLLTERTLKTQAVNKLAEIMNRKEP

[3] = target: the molecule itself; experiment: static light scattering; recombinant ROCK2 in solution; mass 327 kDa, polydispersity index 1.000
[4] = target: the molecule itself; experiment: SEC; Superdex 75 in 20 mM Tris pH 7.5, 100 mM NaCl, 1 mM TCEP, 4 mM MgCl2

B1: human ROCK2 1-408 (kinase domain alone) (domain or fragment)
chain: MPGAPETAPGDGAGASRQRKLEALIRDPRSPINVESLLDGLNSLVLDLDFPALRKNKNIDNFLNRYEKIVKKIRGLQMKAEDYDVVKVIGRGAFGEVQLVRHKASQKVYAMKLLSKFEMIKRSDSAFFWEERDIMAFANSPWVVQLFYAFQDDRYLYMVMEYMPGGDLVNLMSNYDVPEKWAKFYTAEVVLALDAIHSMGLIHRDVKPDNMLLDKHGHLKLADFGTCMKMDETGMVHCDTAVGTPDYISPEVLKSQGGDGFYGRECDWWSVGVFLYEMLVGDTPFYADSLVGTYSKIMDHKNSLCFPEDAEISKHAKNLICAFLTDREVRLGRNGVEEIRQHPFFKNDQWHWDNIRETAAPVVPELSSDIDSSNFDDIEDDKGDVETFPIPKAFVGNQLPFIGFTYYR
modifications: paper residues 1-408 on the 1,379-residue form = O75116 10-417; activation loop not phosphorylated; constitutive dimer; tag cleaved / paper residues 1-408 on the 1,379-residue form = O75116 10-417 …
- stoichiometry N [1]: 2

B2: RBD fragment of human ROCK2 (977-1,047) (domain or fragment)
chain: TLTSDVANLANEKEELNNKLKDVQEQLSRLKDEEISAAAIKAQFEKQLLTERTLKTQAVNKLAEIMNRKEP
modifications: none; His6 tag omitted. The limits are read in O75116 numbering: the fragment is said to match the crystal-structure RBD, and ROCK1 947-1015 (RhoBD 949-1015) aligns with O75116 979-1047 (RhoBD), so …
- stoichiometry N [2]: 2

B3: human ROCK2 (Rho-associated coiled-coil kinase 2), full-length recombinant (enzyme)
chain: MPGAPETAPGDGAGASRQRKLEALIRDPRSPINVESLLDGLNSLVLDLDFPALRKNKNIDNFLNRYEKIVKKIRGLQMKAEDYDVVKVIGRGAFGEVQLVRHKASQKVYAMKLLSKFEMIKRSDSAFFWEERDIMAFANSPWVVQLFYAFQDDRYLYMVMEYMPGGDLVNLMSNYDVPEKWAKFYTAEVVLALDAIHSMGLIHRDVKPDNMLLDKHGHLKLADFGTCMKMDETGMVHCDTAVGTPDYISPEVLKSQGGDGFYGRECDWWSVGVFLYEMLVGDTPFYADSLVGTYSKIMDHKNSLCFPEDAEISKHAKNLICAFLTDREVRLGRNGVEEIRQHPFFKNDQWHWDNIRETAAPVVPELSSDIDSSNFDDIEDDKGDVETFPIPKAFVGNQLPFIGFTYYRENLLLSDSPSCRETDSIQSRKNEESQEIQKKLYTLEEHLSNEMQAKEELEQKCKSVNTRLEKTAKELEEEITLRKSVESALRQLEREKALLQHKNAEYQRKADHEADKKRNLENDVNSLKDQLEDLKKRNQNSQISTEKVNQLQRQLDETNALLRTESDTAARLRKTQAESSKQIQQLESNNRDLQDKNCLLETAKLKLEKEFINLQSALESERRDRTHGSEIINDLQGRICGLEEDLKNGKILLAKVELEKRQLQERFTDLEKEKSNMEIDMTYQLKVIQQSLEQEEAEHKATKARLADKNKIYESIEEAKSEAMKEMEKKLLEERTLKQKVENLLLEAEKRCSLLDCDLKQSQQKINELLKQKDVLNEDVRNLTLKIEQETQKRCLTQNDLKMQTQQVNTLKMSEKQLKQENNHLMEMKMNLEKQNAELRKERQDADGQMKELQDQLEAEQYFSTLYKTQVRELKEECEEKTKLGKELQQKKQELQDERDSLAAQLEITLTKADSEQLARSIAEEQYSDLEKEKIMKELEIKEMMARHKQELTEKDATIASLEETNRTLTSDVANLANEKEELNNKLKDVQEQLSRLKDEEISAAAIKAQFEKQLLTERTLKTQAVNKLAEIMNRKEPVKRGNDTDVRRKEKENRKLHMELKSEREKLTQQMIKYQKELNEMQAQIAEESQIRIELQMTLDSKDSDIEQLRSQLQALHIGLDSSSIGSGPGDAEADDGFPESRLEGWLSLPVRNNTKKFGWVKKYVIVSSKKILFYDSEQDKEQSNPYMVLDIDKLFHVRPVTQTDVYRADAKEIPRIFQILYANEGESKKEQEFPVEPVGEKSNYICHKGHEFIPTLYHFPTNCEACMKPLWHMFKPPPALECRRCHIKCHKDHMDKKEEIIAPCKVYYDISTAKNLLLLANSTEEQQKWVSRLVKKIPKKPPAPDPFARSSPRTSMKIQQNQSIRRPSRQLAPNKPS
modifications: mono- and diphosphorylated species, two adjacent serines (1,352-1,353)
- stoichiometry N [3]: 2

B4: RBD fragment of human ROCK1 (947-1,015) (domain or fragment, UniProt Q13464 947-1015, looked up)
chain: MLTKDIEILRRENEELTEKMKKAEEEYKLEKEEEISNLKAAFEKNINTERTLKTQAVNKLAEIMNRKDF
notes: also called ROCK1 RBD; source: E. coli BL21 (DE3), purified (NiNTA, Superdex 75)
- stoichiometry N [4]: 2
